The test has as its target T1, purified recombinant Kap121p (S. cerevisiae, UniProt P32337 1-1089).
T1 sequence (looked up): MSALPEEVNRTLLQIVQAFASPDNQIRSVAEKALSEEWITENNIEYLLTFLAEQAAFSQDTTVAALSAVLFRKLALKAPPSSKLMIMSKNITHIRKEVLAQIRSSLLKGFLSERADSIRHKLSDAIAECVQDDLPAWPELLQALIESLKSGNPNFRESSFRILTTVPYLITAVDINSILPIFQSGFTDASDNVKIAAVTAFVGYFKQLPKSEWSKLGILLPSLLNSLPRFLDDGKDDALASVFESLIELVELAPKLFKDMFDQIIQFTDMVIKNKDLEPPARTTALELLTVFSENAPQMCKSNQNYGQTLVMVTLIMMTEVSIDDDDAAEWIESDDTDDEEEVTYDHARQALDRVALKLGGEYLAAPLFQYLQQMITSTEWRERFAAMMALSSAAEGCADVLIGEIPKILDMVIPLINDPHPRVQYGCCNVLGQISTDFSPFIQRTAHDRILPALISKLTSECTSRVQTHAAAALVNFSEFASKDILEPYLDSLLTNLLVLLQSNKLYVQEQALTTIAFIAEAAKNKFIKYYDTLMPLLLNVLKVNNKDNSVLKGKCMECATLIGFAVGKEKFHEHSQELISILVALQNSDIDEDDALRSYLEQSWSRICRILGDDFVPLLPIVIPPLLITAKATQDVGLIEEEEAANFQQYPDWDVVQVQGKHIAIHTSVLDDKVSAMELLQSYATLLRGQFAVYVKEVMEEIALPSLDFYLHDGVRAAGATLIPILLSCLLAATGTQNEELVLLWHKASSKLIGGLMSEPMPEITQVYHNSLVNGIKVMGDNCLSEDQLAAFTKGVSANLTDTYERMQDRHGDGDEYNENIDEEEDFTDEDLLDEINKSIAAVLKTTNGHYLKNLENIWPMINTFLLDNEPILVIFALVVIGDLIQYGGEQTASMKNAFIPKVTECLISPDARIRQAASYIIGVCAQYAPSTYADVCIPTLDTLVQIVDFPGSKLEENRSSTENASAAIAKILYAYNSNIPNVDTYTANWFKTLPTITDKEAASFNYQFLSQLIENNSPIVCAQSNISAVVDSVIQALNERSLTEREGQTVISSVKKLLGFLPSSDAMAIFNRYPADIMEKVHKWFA
The test is described as follows: pull-down.

B1: purified recombinant Nup53p (natural protein, S. cerevisiae, UniProt Q03790 1-475, looked up)
chain: MADLQKQENSSRFTNVSVIAPESQGQHEQQKQQEQLEQQKQPTGLLKGLNGFPSAPQPLFMEDPPSTVSGELNDNPAWFNNPRKRAIPNSIIKRSNGQSLSPVRSDSADVPAFSNSNGFNNVTFGSKKDPRILKNVSPNDNNSANNNAHSSDLGTVVFDSNEAPPKTSLADWQKEDGIFSSKTDNIEDPNLSSNITFDGKPTATPSPFRPLEKTSRILNFFDKNTKTTPNTASSEASAGSKEGASTNWDDHAIIIFGYPETIANSIILHFANFGEILEDFRVIKDFKKLNSKNMSKSPSLTAQKYPIYTGDGWVKLTYKSELSKSRALQENGIIMNGTLIGCVSYSPAALKQLASLKKSEEIINNKTSSQTSLSSKDLSNYRKTEGIFEKAKAKAVTSKVRNAEFKVSKNSTSFKNPRRLEIKDGRSLFLRNRGKIHSGVLSSIESDLKKREQASKSKKSWLNRLNNWLFGWNDL
Consider B1, for which the binding result is “binds”.

Source of the values: publication PMC2064105 (The Journal of Cell Biology, 2007).
